“And” between values parts separate entries of the source, which are not always exact repeats. Equal values may be shown once.

The conditions of the data set: Saccharomyces cerevisiae (strain ATCC 204508 / S288c), Thermal, DSC, reversible: yes.
The mark [1] stands for this setting: pH 4.7, 51.4 °C, sodium acetate 50 mM, structure 1YCC.
The mark [2] stands for this setting: pH 4.7, sodium acetate 50 mM, structure 1YCC.
[3] abbreviates: pH 6, 57.1 °C, sodium phosphate 100 mM, structure 1YCC.
Setting [4] is: pH 6, sodium phosphate 10 mM, structure 1YCC.
Setting [5] is: pH 6, sodium phosphate 100 mM, structure 1YCC.

Cytochrome c isoform 1 C108T, P00044, sequence (P00044 whole entry C108T, canonical isoform): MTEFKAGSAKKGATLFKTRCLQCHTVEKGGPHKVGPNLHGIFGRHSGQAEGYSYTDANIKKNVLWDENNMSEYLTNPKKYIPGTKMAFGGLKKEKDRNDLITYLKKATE
Cytochrome c isoform 1 T75E|C108T, P00044 T75E C108T, sequence (P00044 whole entry T75E/C108T, canonical isoform): as the sequence (P00044 whole entry C108T, canonical isoform) above, with T75E counted along it
Cytochrome c isoform 1 T75E|T102A|C108T, P00044 T75E T102A C108T, sequence (P00044 whole entry T75E/T102A/C108T, canonical isoform): as the sequence (P00044 whole entry C108T, canonical isoform) above, with T75E, T102A counted along it
Cytochrome c isoform 1 wild type, P00044, sequence (P00044 whole entry, canonical isoform): as the sequence (P00044 whole entry C108T, canonical isoform) above, with T108C counted along it
Cytochrome c isoform 1 T102A|C108T, P00044 T102A C108T, sequence (P00044 whole entry T102A/C108T, canonical isoform): as the sequence (P00044 whole entry C108T, canonical isoform) above, with T102A counted along it

On to “Cytochrome c isoform 1 T75E|C108T, P00044 T75E C108T”, for which the “unfolding enthalpy (calorimetric)” value by setting is: under setting [1], 80 kcal/mol; under setting [2], 89 kcal/mol and 125 kcal/mol; under setting [3], 90 kcal/mol and 91 kcal/mol; under setting [4], 98 kcal/mol; under setting [5], 135 kcal/mol. For the same substance, the “heat capacity change of unfolding” value is, setting by setting: under setting [2], 1.5 kcal/mol/K; under setting [4], 1.5 kcal/mol/K; under setting [5], 1.5 kcal/mol/K. Moreover, the “unfolding enthalpy (van 't Hoff)” value is 97.9 kcal/mol and 138 kcal/mol under setting [2]; 108 kcal/mol under setting [4]; 149 kcal/mol under setting [5]. Further, the Tm (in general, the temperature at which the thermal transition is half complete) was 62.6 °C under setting [4] and 86.3 °C under setting [5].
For Cytochrome c isoform 1 C108T, P00044, the “unfolding enthalpy (calorimetric)” value runs as follows: under setting [1], 65 kcal/mol and 68 kcal/mol; under setting [2], 69 kcal/mol and 116 kcal/mol; under setting [3], 81 kcal/mol and 75 kcal/mol; under setting [4], 86 kcal/mol and 122 kcal/mol. The “heat capacity change of unfolding” value under setting [2] worked out at 1.7 kcal/mol/K and the “heat capacity change of unfolding” value under setting [4] worked out at 1.7 kcal/mol/K. Also, the “unfolding enthalpy (van 't Hoff)” value was 82.8 kcal/mol and 151 kcal/mol under setting [2]; 95 kcal/mol and 146 kcal/mol under setting [4].
On to “Cytochrome c isoform 1 wild type, P00044”, for which the “unfolding enthalpy (calorimetric)” value reads like this: (pH 4.7, 51.4 °C, sodium acetate 50 mM) 42 kcal/mol and 49 kcal/mol; (pH 4.7, sodium acetate 50 mM) 40 kcal/mol; (pH 6, 57.1 °C, sodium phosphate 100 mM) 78 kcal/mol and 62 kcal/mol; (pH 6, sodium phosphate 100 mM) 78 kcal/mol and 98 kcal/mol. Besides, the “heat capacity change of unfolding” value was determined as 1.4 kcal/mol/K (pH 4.7, sodium acetate 50 mM) and 1.4 kcal/mol/K (pH 6, sodium phosphate 100 mM). Besides, the “unfolding enthalpy (van 't Hoff)” value was 52 kcal/mol (pH 4.7, sodium acetate 50 mM); 101 kcal/mol and 127 kcal/mol (pH 6, sodium phosphate 100 mM). For the setting “pH 6, sodium phosphate 10 mM”, the Tm is 81.4 °C.
For “Cytochrome c isoform 1 T75E|T102A|C108T, P00044 T75E T102A C108T”, the “unfolding enthalpy (calorimetric)” value was 75 kcal/mol and 77 kcal/mol under setting [1]; 85 kcal/mol and 130 kcal/mol under setting [2]; 83 kcal/mol and 92 kcal/mol under setting [3]; 92 kcal/mol and 143 kcal/mol under setting [5]. In addition, the “heat capacity change of unfolding” value by setting is: under setting [2], 1.7 kcal/mol/K; under setting [5], 1.7 kcal/mol/K. The “unfolding enthalpy (van 't Hoff)” value by setting is: under setting [2], 102 kcal/mol and 169 kcal/mol; under setting [5], 120 kcal/mol and 157 kcal/mol.
Take “Cytochrome c isoform 1 T102A|C108T, P00044 T102A C108T”: the “unfolding enthalpy (calorimetric)” value runs as follows: under setting [1], 78 kcal/mol and 67 kcal/mol; under setting [2], 84 kcal/mol and 121 kcal/mol; under setting [3], 84 kcal/mol; under setting [5], 91 kcal/mol and 144 kcal/mol. For the same substance, the “heat capacity change of unfolding” value reads like this: under setting [2], 1.8 kcal/mol/K; under setting [5], 1.8 kcal/mol/K. The “unfolding enthalpy (van 't Hoff)” value is 118 kcal/mol and 133 kcal/mol under setting [2]; 109 kcal/mol and 144 kcal/mol under setting [5].

(Values after FireProtDB (doi:10.1016/s0167-4838(99)00071-0).)
